Key:
actn2_human ACTN2 = actn2_human ACTN2 (UniProt P35609)
telt_human TCAP = telt_human TCAP (UniProt O15273)
telt_human TCAP, sequence (O15273 whole entry): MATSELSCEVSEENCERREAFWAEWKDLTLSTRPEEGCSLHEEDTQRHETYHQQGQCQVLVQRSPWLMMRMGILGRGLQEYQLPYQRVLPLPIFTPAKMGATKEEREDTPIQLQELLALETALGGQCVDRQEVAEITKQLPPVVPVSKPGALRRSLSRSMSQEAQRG

actn2_human ACTN2, sequence (P35609 whole entry): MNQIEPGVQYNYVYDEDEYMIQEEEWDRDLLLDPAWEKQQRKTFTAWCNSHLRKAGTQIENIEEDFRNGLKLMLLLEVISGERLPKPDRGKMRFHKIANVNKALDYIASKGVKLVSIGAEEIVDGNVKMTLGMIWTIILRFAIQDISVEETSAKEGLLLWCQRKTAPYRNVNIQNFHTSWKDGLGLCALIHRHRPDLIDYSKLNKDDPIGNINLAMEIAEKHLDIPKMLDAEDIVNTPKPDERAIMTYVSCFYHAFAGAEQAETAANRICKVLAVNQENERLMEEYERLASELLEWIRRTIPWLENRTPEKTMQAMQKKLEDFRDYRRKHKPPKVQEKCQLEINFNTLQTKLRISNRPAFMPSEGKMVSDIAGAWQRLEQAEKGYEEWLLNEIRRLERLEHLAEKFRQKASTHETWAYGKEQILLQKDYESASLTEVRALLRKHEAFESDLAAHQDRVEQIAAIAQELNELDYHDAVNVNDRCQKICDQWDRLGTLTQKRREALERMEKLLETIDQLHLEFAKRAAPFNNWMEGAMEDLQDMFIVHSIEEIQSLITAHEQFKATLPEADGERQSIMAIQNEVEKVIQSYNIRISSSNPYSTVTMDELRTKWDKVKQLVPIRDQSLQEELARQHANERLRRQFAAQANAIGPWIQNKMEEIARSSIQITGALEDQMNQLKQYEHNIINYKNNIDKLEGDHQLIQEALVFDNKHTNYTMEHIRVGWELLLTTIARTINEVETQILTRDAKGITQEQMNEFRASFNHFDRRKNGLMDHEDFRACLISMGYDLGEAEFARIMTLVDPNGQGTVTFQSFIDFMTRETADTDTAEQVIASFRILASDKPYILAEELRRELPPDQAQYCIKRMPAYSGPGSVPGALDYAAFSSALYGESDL

Row | effect of a mutation on the interaction (actn2_human ACTN2) | effect of a mutation on the interaction (telt_human TCAP) | Substance
1 | decreasing interaction | – | Titin (Homo sapiens), Q8WZ42 A743V
2 | – | decreasing interaction | Titin (Homo sapiens), Q8WZ42 V54M

— IntAct's records for PubMed 11846417
